How the values were obtained:
Test in all cases: cell-based or functional assay
[1] = biological target: Corynebacterium glutamicum SSB (Corynebacterium glutamicum)
[2] = biological target: Lactobacillus reuteri SSB (Lactobacillus reuteri)
[3] = biological target: E. coli single-strand DNA-binding protein (SSB) (Escherichia coli) (UniProt P0AGE0)
Chain of UniProt P0AGE0 (P0AGE0 2-178 limits assumed): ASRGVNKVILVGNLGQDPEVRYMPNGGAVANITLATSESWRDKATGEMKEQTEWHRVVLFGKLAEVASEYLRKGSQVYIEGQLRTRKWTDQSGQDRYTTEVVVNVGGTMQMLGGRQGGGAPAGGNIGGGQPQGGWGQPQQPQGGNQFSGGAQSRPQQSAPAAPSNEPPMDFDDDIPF

Substance | Allele Recombination (AR) Frequency in E. coli, bi-cistronic co-expression [1] | increase of AR frequency over the SSAP alone [1] [fold] | Allele Recombination (AR) Frequency in E. coli, bi-cistronic co-expression [2] | increase of recombination frequency over the SSAP alone [2] [fold] | Allele Recombination (AR) Frequency in E. coli, bi-cistronic co-expression [3]
Corynebacterium glutamicum recT | 0.245 | 10 | 0.044 | – | –
Lactobacillus reuteri recT1 | 0.000496 | – | 0.003 | 10 | –
λ β expressed from pARC8 in E. coli (no tag stated) (from UniProt P03698 1-261) | – | – | – | – | 0.09

— patent US20210332350A1
